# Assay: yeast display, Sf9 membrane polyspecificity reagent, FACS + sequencing; frameworks hold sequencing errors
# In short: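 Genes from sorted yeast were amplified by colony PCR, read by MiSeq 2 × 250 sequencing and filtered on CDR length. These cells carried a synthetic nanobody library in Saccharomyces cerevisiae BJ5465 and were sorted by FACS into low and high (top ~1%) gates on anti-HA and streptavidin fluorescence. Polyreactivity is labelled according to the gate of origin.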
row,Sequence,polyreactivity (PSR sort gate)
1,QVQLVESGGGLVQAGGSLRLICAASGFTLADNGMGWYRQAPGKERELVATISGGGSTNYADSVKGRFTISRDNAKNTVYLQMISLKPEDTAVYYCAKEGRYSWYTLSEYDYWGQGTQVTVSS,low polyreactivity
2,QVQLVESGGGLVQAGGSLRLICAASGFTLTRNAMGWYRQAPGKESELVAAISWSGGTTYYADSVKGRFTISRDNAKNTVYLQMNSLKPEDTAFYYCNTASWRDQYYYWGQVTQVTVSS,high polyreactivity
3,QVQLVESGGGLVQAGGSLRLICAASGGIFYVNAMGWYRQAPGKERELVADIRYSGTSTYYADSVKGRFTISRDNAKNTVYLQMNSLKPEDTAVYYCAVDAWDTTLVYEQGAERDSWGQGTQVTVSS,low polyreactivity
4,QVQLVESGGGLVQAGGSLRLICAASGIIFAVYARGCYRQAPGKERELVAAISTSGGRTDYADSVKGRFTISRDNAKNTVYLQMNSLKPEDTAVYYCAAEYVGKGTPDDYDYWGQGTQVTVSS,high polyreactivity
5,QVQLVESGGGLVQAGGSLRLICAASGIIFGNNAMGRYRQAPGKERELVAAIRWSTGTTYYADSVKGRFTISRDNATNTVYLQMNSLKPEDTAVYYCAARLRREYGYWGQGTQVTVSS,high polyreactivity
6,QVQLVESGGGLVQAGGSLRLICAASGIIFRSYAMGWYRQAPGKERELVAGISLSGGSTYYADSVKGRFTISRDNAKNTVYLQMNSLKPEDTAVYYCAARRRYKSGYWGQGTQVTVSS,high polyreactivity
7,QVQLVESGGGLVQAGGSLRLICAASGIIFRVYAMGWYRQAPGKERELVATITWSGGSTFYADSVKGRFTISRDNAKNTVDLQRNSLKPEDTAVYYCAARGYLRGEQLYVLIRYDYWGQGTQVTVSS,low polyreactivity
8,QVQLVESGGGLVQAGGSLRLICAASGIIFTGYTMGWYRPAPGKERELVAAITWRGGSTYYADSVKGRFTISRDNAKNTVYLQMNSLKPEDTAVYYCAAEGWYSWDDDYWGQGTQVTVSS,low polyreactivity
9,QVQLVESGGGLVQAGGSLRLICAASGIIFYKYTMGWYRQAPGKERELVAAITKSGVRTYYADSVKGRFTISRDNAKNTVYLQMNSLKPEDTAVYYCAAKTPTKDRGSDFDYWGQGTQVTVSS,high polyreactivity
10,QVQLVESGGGLVQAGGSLRLICAASGIIFYRYAMGWYRQAPGKEREFVAAISRGGGSTYYADSVKGRFTISRDNAKNTVYLQMNSLKPEDTAVYYCNARVTRVTVDQYSIKSMDYWGQGTQVTVSS,high polyreactivity
11,QVQLVESGGGLVQAGGSLRLICAASGIILFYAMGWYRQAPGKERELVAAISSGGGTSYADSVKGRFTLSRDNAKKTVYLQMNSLKPEDTAVYYCAKTDGFYRGDGYWGQGTQVNVSS,low polyreactivity
12,QVQLVESGGGLVQAGGSLRLICAASGITFTGYAMGWYREAPGKEREVVAPISKRGARTYYADSVKGRFTISRDNAKHTVYVQMNSLQPEDTAVYYCAVRRWGYWTGYRGLDYDYWGQGTQVTVSS,high polyreactivity
13,QVQLVESGGGLVQAGGSLRLICAASGITFTQYAMGWYRQAPGNEREFVAGITISGSSTYYADSVKGRFTISRDNAKNTVYLQMNRLKPEDTAVYYCAAGVRRVYASGHGAYGYWGQGTQVTVSS,low polyreactivity
14,QVQLVESGGGLVQAGGSLRLICAASGLIFPRYDMGWYRQAPGKERELVAAITSGGGTYYADSVKGRFTISRDNAKNTVYLQMNSLKPEDTAVYYCARDHYRHSRYFYRYDYWGQGTQVTVSS,low polyreactivity
15,QVQLVESGGGLVQAGGSLRLICAASGLILKYYAMGWYRQAPGKEREFVAAITRRGGITYYADSVKGRFTISRDNAKNTVYLQMNSLKPEDTAVYYCAADPKLGSLAYWRYSYPLYDYWGQGTQVTVSS,low polyreactivity
16,QVQLVESGGGLVQAGGSLRLICAASGLTFTKYAMGWYRQAPGKERELVATITSGGSTNYADSVKGRFTISRDNAKNTVYLQMNSLKPEDTAVYYCNRDNYKWPYWEFDYWGQGTQVTVSS,high polyreactivity
17,QVQLVESGGGLVQAGGSLRLICAASGLTFYYYAMGWYRQAPGKERELVAASSTRGTSTYYADSVKGRFTISRDNSKNTVYLQMNSLKPEDTAVYYCAADSYPCGTGGDYWGQGTQVTVSS,high polyreactivity
18,QVQLVESGGGLVQAGGSLRLICAASGNIFDVNAMGLYRQAPGKERELVAGITTNGGRTFYADSVKGRFTFSRDNAKNTVYLQMNSLKPEDTAVYYWNARHGRHRRTPFAKYDFWGQGTQVTVSS,high polyreactivity
19,QVQLVESGGGLVQAGGSLRLICAASGNTFYRNAMGLYRQAPGKERELVAAIDYSAGSTYYADSVKWRFTISRDNAKYSVFFQMKSLNPEDTAVYYCAADARTSRGGRYYYWGQGTQVTVSS,low polyreactivity
20,QVQLVESGGGLVQAGGSLRLICAASGRIFAYYAMGWYRHAPGKERELVAAISGSGRTYYADSVKGRFTISRDNAKYTVYLQMNSLKPEDTAVYYCNNVYSFYYTEGYDYWGQVTQVTVSS,high polyreactivity
21,QVQLVESGGGLVQAGGSLRLICAASGRIFDGYAMGWYRQAPGKERELVAAISSDGGSTNYADSVKGRFTISRDNAKNTVYLQMNSLKPEDTAVYYCAESRLGEYLGYDYWGQGTQVTVSS,low polyreactivity
22,QVQLVESGGGLVQAGGSLRLICAASGRIFGTNAKGWYRQAPGKERELVADITSGGSTNYADSVKGRFTISRDNAKNTVYLQMNSLKPEDTAVYYCAADVIGDLRWYRDEYWGQGTQVTVSS,low polyreactivity

row,Sequence,polyreactivity (PSR sort gate)
1,QVQLVESGGGLVQAGGSLRLICAASGRIFLTYAMGWYRQAPGKERELVAAISTSGTRTYYADSVKGRFTISRDTAKKTVYLQMNSLKPEDTAVYHCAREKYNYRTYEYWGQGTQVTVSS,high polyreactivity
2,QVQLVESGGGLVQAGGSLRLICAASGRIFPSNAMGGSIQAPGKERELVAAINTGGSTYYADSVKGRFTISRDNAKNTVYLQMNSQKPEDTAVYYCAAARRYYYYWGQGTQVTVSS,high polyreactivity
3,QVQLVESGGGLVQAGGSLRLICAASGRIFRYYAMGWSRQAPGKERELVAAIRSASSTYYADSVNGRFTISRDNAKITVYLKMNSLIPEDTSVYYCADRLYGVYKRRYYYWGQGTQVTVSS,high polyreactivity
4,QVQLVESGGGLVQAGGSLRLICAASGRIFVPYVMGWYRQAPGKERELVASISDSDTSTYYADSVKGRFTISRDNAKNTVYLQMNSVKPEDTAVYYCNVDYWGQGTQVTVSS,low polyreactivity
5,QVQLVESGGGLVQAGGSLRLICAASGRIFVYYAMGWYRQAPGKERELVAAISSGGSTYYADSVKGRFTISRDNAKNTVYLQMNSLKPEDTAVYYCAADPQRGRRIGYYWGQGTQVTVSS,low polyreactivity
6,QVQLVESGGGLVQAGGSLRLICAASGRILDNYAMGWYRQAPGKERELVAAISASGASTYYADSVKGRFTISRDNAKNTVYLQMNSLKPEDTAVYYCNAAARYRWQYDYSLYEYGHWGQGTQVTVSS,high polyreactivity
7,QVQLVESGGGLVQAGGSLRLICAASGRTFAGNAMGWYRQAPGKERELVAAISQGGGYTYYADSVKGRFTISRDNAKNNVYLQMNSLKPEDTAVYYCAAEIPRRWASFATLWYDYLGQGTQVTVSS,low polyreactivity
8,QVQLVESGGGLVQAGGSLRLICAASGRTFGTHTMGWYRQAPGKERELVAAISSRGGTTYYADSVKGRFTISRDNAKNTVYLQMNSLKPEDTAVYYSNTGTRAIQRDGFEYWGQGTQVTVSS,low polyreactivity
9,QVQLVESGGGLVQAGGSLRLICAASGRTFKRYVIGWYRQAPRKERELVATITRGGSTTYADSVKGRFTISRDNAKNTVFLQMNSLKPEDTAVYYCIADLYQVYLSDYWGQGTQVTVSS,high polyreactivity
10,QVQLVESGGGLVQAGGSLRLICAASGRTFRYNAMGWYRQAPGKERELVASITSGGSTNYADSVKGRFTISRDHAKNTVYLQMNSLKPEDTAVYYCAKDHYYRYEDGDYWGQGTQVTVSS,low polyreactivity
11,QVQLVESGGGLVQAGGSLRLICAASGRTFSFYARVWYRQAPGKETEFVAAITGSGGSTYYADSVKGRFTISRDNAKNTVYLKMNSLKPEDTAVYYCAKRSAWHTYRYGYWGQGTQVTVSS,high polyreactivity
12,QVQLVESGGGLVQAGGSLRLICAASGRTFSGNTMGWYRQAPGKERELVAAITGRGGSTYYADSVKGRFTISRDNAKNTVYLQMNSLKPEDTAVYYCAALRYTFAGRFDYWGHGTQVTVSS,high polyreactivity
13,QVQLVESGGGLVQAGGSLRLICAASGRTFSNAMGWYRQAPGKERELVADISSGGSPNYADSVKGRFTISRDNAKNTVYLEINSLKPEDTAVYYCAAFSGCLYGYSDDYWGQGTQVTVSS,low polyreactivity
14,QVQLVESGGGLVQAGGSLRLICAASGRTFWNYAMGWYRQAPGKERELVAVIRFSDGSTYYADSVKGRFTISRDNAKNTVYLQMNSLKPEDTAVYYCAAKGPRRWGSGFDYWGQGTQVTVSS,low polyreactivity
15,QVQLVESGGGLVQAGGSLRLICAASGRTFYNAMGWYRQAPGKERELVAAISSAGRTYYADSVKGRFTISRDNAKNTVYLQMNSLKPEDTAVYYCAATAFSYYPYHGDYWGQGTQVTVSS,high polyreactivity
16,QVQLVESGGGLVQAGGSLRLICAASGRTFYSYAMAWYRQAPGQERELVAAISSGGTTYYADSVKGRFTISRDNAKNTVYLQMNSLKPEDTAVYYCATSRAWRYRSYYWGQGTQVTVSS,high polyreactivity
17,QVQLVESGGGLVQAGGSLRLICAASGRTIDHYAMGWYRQAPGKERELVAAISTTGGSTYYADSVKGRFTISRDNAKNTVYLQMNSLKPEDTAVYYCAARGLRTGGYWGQGTQVTVSS,high polyreactivity
18,QVQLVESGGGLVQAGGSLRLICAASGRTNGVYVMGLYRQAPGKERELVAAIRKGVGSTYYADSVKGRFTISRDNAKNTVYLQMNSLKPEETAVYYCAADTRHYRYGYWGQGTQVTVSS,low polyreactivity
19,QVQLVESGGGLVQAGGSLRLICAASGSIFADYAMGWYRQAPGKERELVAAITGSGGRTYYADSVKGRFTISRDNAKNTVYLQMNSLKPEDTAVYYCAAYQVVWDPYTRYDYWGQGTQVTVSS,low polyreactivity
20,QVQLVESGGGLVQAGGSLRLICAASGSIFAYYAMGWYRQAPGKERELVGTNYADSVKGRFTISRDNAKNTVYLQMNSLKPEDTAVYYCAASSRRYLWGFDYWGQGTQVTVSS,low polyreactivity
21,QVQLVESGGGLVQAGGSLRLICAASGSIFCTYAMGWYRQAPGKERELVAAITTSVGRTYYADSVKGRFTISRDNAKNTVYLHMNSLKPDDTAVYYCYAVRGGRYGLDYWGQGTHVTVSS,high polyreactivity

# Source: the nanobody polyreactivity screen of Harvey et al. (2022)
